Measurements from article PMC3093372, “A Large and Intact Viral Particle Penetrates the Endoplasmic Reticulum Membrane to Reach the Cytosol” (PLoS Pathogens, 2011).

B1: SV40 VP2 (natural protein)
chain: MGAALTLLGDLIATVSEAAAATGFSVAEIAAGEAAAAIEVQLASVATVEGLTTSEAIAAIGLIPQAYAVISGAPAAIAGFAALLQTVTGVSAVAQVGYRFFSDWDHKVSTVGLYQQPGMAVDLYRPDDYYDILFPGVQTFVHSVQYLDPRHWGPTLFNAISQAFWRVIQNDIPRLTSQELERRTQRYLRDSLARFLEETTWTVINAPVNWYNSLQDYYSTLSPIRPTMVRQVANREGLQISFGHTYDNIDEADSIQQVTERWEAQSQSPNVQSGEFIEKFEAPGGANQRTAPQWMLPLLLGLYGSVTSALKAYEDGPNKKKRKLSRGSSQKTKGTSASAKARHKRRNRSSRS
notes: minor capsid protein VP2 of simian virus 40, native protein of the virus; contains all of VP3 plus an additional N-terminal extension; Detected with a VP2/VP3 antibody that sees both proteins; source: SV40 virions purified from SV40-infected or viral genome-transfected CV-1 cells (OptiPrep gradient); input virus in S1 and S2 fractions of infected CV-1 cells
B2: SV40 VP1 coat protein (natural protein, simian virus 40 (SV40), UniProt P03087 1-362, looked up)
chain: MAPTKRKGSCPGAAPKKPKEPVQVPKLVIKGGIEVLGVKTGVDSFTEVECFLNPQMGNPDEHQKGLSKSLAAEKQFTDDSPDKEQLPCYSVARIPLPNINEDLTCGNILMWEAVTVKTEVIGVTAMLNLHSGTQKTHENGAGKPIQGSNFHFFAVGGEPLELQGVLANYRTKYPAQTVTPKNATVDSQQMNTDHKAVLDKDNAYPVECWVPDPSKNENTRYFGTYTGGENVPPVLHITNTATTVLLDEQGVGPLCKADSLYVSAVDICGLFTNTSGTQQWKGLPRYFKITLRKRSVKNPYPISFLLSDLINRRTQRVDGQPMIGMSSQVEEVRVYEDTEELPGDPDMIRYIDEFGQTTTRMQ
notes: major capsid protein VP1 of simian virus 40, native protein of the virus (genome from pUCSV40); no residues stated; Stood in the assays as part of viral particles or of VP1 pentamers; the introduction says the capsid is 72 pentamers of VP1; source: SV40 virions purified from SV40-infected or viral genome-transfected CV-1 cells (OptiPrep gradient); input virus in S1 and S2 fractions and whole cell …

Experiments:
SV40 VP1 coat protein = target: B2; test: co-IP; S2 (Triton X-100 extract of P1, ER-localized virus) from CV-1 cells infected with SV40 for 12 hrs; precipitated with VP1 monoclonal antibodies (CC10 and BC11), Protein G-Dynabeads, wash 50 mM Hepes pH 7.5, 500 mM NaCl, 1% Triton X-100; blot with VP2/VP3 antibody; details: partners not purified
[1] = target: the molecule itself; test: sucrose gradient sedimentation; S1 of CV-1 cells transfected with the SV40 genome for 48 hrs; continuous 20-40% sucrose gradient, 49,500 rpm, 50 min, 4°C; fractions blotted for VP1

B1
binding result (SV40 VP1 coat protein): binds

B2
stoichiometry N [1]: 5
